Here are results for 16 sequences from the DeepSol protein solubility set.

This data set can be described thus: soluble on expression in E. coli; label from the status in PepcDB or PDB records.
Regarding “MVPCWNHGNITRSKAEELLSRTGKDGSFLVRASESISRAYALCVLYRNCVYTYRILPNEDDKFTVQASEGVSMRFFTKLDQLIEFYKKENMGLVTHLQYPVPLEEEDTGDDPEEDTVESVVSPPELPPRNIPLTASSCEAKEVPFSNENPRATETSRPSLSETLFQRLQSMDTSGLPEEHLKAIQDYLSTQLAQDSEFVKTGSSSLPHLKKLTTLLCKELYGEVIRTLPSLESLQRLFDQQLSPGLRPRPQVKG”, the “soluble on expression in E. coli” value is “soluble”.

With “MVQAFEPYIALNSHVRKPVIHISLNPSPKDILSKEQMTVLAQEFMEKFGYGNQPYIVWLHEDIDRKHMHIISVRINEKGEKIDHNREAIRAQNICRDMEVKYGLHSTLGEHSERELLSLQKVDYPKGDVKAQVKHTARTLLECYNCHSLAEYNTLLNLYNVTVYEVRGSVDGKEYYGIMYGALDDDGQQAGTPFKSSKFGKVFGYEALQKKFAATAEKVLEHHHHHH”, the “soluble on expression in E. coli” value was “not soluble”.

Consider “MVQLDRFEILFNNPEQAYFAGQEISGKVIIENKEPKKVNEILLELKGRARTYWTKHSGKSRKHCSHSEPYFLEQFNPGYTHKFTVVKDGKEKERILPAGIHQVPFSYTLPKSLPSSFEGEFGHIRYTCKAICERPWDFDIVSRKAFTVVGIEDINSDPKLNEPATCVESNHAVTFCCRSAGSVTGEIRISKCGYTPGEKIDVSFKVINLSSKTRTTALRFVQQTTYKAKTFAGHEHIKNVVRVISKIDKGEVPGGSTTEWQEESITIPSLPPKLGKCKILSVTYSVELEVEQTLTVPCPIVIGSIPQLSQLLIHSKQSVQSAGNGSLPKSSIKDSPPKWDSESCVQVTITDESGQLVEELGNEMEALLSARKRVRMPSSILSELYPTMPSPYYKESFFGASDISEEKEQAQFGEASFAPKYPFYTD”, for which the “soluble on expression in E. coli” value is reported as “not soluble”.

“MVRIALEGELFKGVTSLLDQADRTAGAEIFSALYELNDPRGLEVRLQAHDHGDPKIRNVVLGNERGKKNGVEVDDADSDNRHNLHAAGVNVTDRILPDGSIPHNKFMVLEENGKPTKVLTGSTNWTSTGLATQTNNTLIIKSPLVAARYKEYWTSVKHFSELGADAPKKLQDPLEHHHHHH”: the “soluble on expression in E. coli” value is listed as “not soluble”.

Regarding “MVRIIVDHSLILLYSLSAFEESKYISSEEQMQISEYINVDDKIIQRWFEIRRAPTQESWEPEVILPEAIAIFEKEFTTNPNPCSHTLEELRMKTHVQVDSINKWFDERRCAAEQNIKSDSEGSEASFSLCSSWGDTDKELKVDLKMA”, the “soluble on expression in E. coli” value is recorded as “not soluble”.

As to “MVRIRWFFIRHAESEANVVERWRIAGRSEAARLTERGERQARVVGEAVAIRLEQVLRVDGGDAGGVSGDAGRRRVLAPVAFTSPLLRARQTAALVLEQVAQPVKLEPVDDLAEVYQGLWEDALRSEVHTPETLQAMARNPYEFRAPGGEAQADVERRVLRAVSRMSQRVLSLLSLELEENEQTDVIVLVFTHGYVCKCLIRSVLDASPHLTGQIQVDNGALVELWLEPAAQQGALTSAAELGMWTVLRINDTWGQLTASMR”, the “soluble on expression in E. coli” value is reported as “not soluble”.

As for “MVRYYHIEMLACPECRNPRLILYVVREKRGAMPPQPERLKCRRWCYLFDRPASTVPLSTCVSSCVERDIEEGVLVCPACGRWYPIVEGIPVMMDDKYRDPERDREIASRLAGHVPEWVKLRAVAPVPLEPREAGEG”, the “soluble on expression in E. coli” value was “soluble”.

“MVSCENLWQQALAILATQLTKPAFDTWIKASVLISLGDGVATIQVENGFVLNHLQKSYGPLLMEVLTDLTGQEITVKLITDGLEPHSLIGQESSLPMETTPKNATALNGKYTFSRFVVGPTNRMAHAASLAVAESPGREFNPLFLCGGVGLGKTHLMQAIAHYRLEMYPNAKVYYVSTERFTNDLITAIRQDNMEDFRSYYRSADFLLIDDIQFIKGKEYTQEEFFHTFNSLHEAGKQVVVASDRAPQRIPGLQDRLISRFSMGLIADIQVPDLETRMAILQKKAEYDRIRLPKEVIEYIASHYTSNIRELEGALIRAIAYTSLSNVAMTVENIAPVLNPPVEKVAAAPETIITIVAQHYQLKVEELLSNSRRREVSLARQVGMYLMRQHTDLSLPRIGEAFGGKDHTTVMYSCDKITQLQQKDWETSQTLTSLSHRINIAGQAPESLEHHHHHH”: the “soluble on expression in E. coli” value is listed as “not soluble”.

As to “MVSTTQSRSLKAMGEEIWKNKTEKINTELFTLTYGSIVAQLCQDYERDFNKVNDHLYSMGYNIGCRLIEDFLARTALPRCENLVKTSEVLSKCAFKIFLNITPNITNWSHNKDTFSLILDENPLADFVELPMDAMKSLWYSNILCGVLKGSLEMVQLDCDVWFVSDILRGDSQTEIKVKLNRILKDEIPIGED”, the “soluble on expression in E. coli” value is “soluble”.

As for “MVSVSSEPVMPTALKILIAGGFGVGKTTMVGSVSEVPPLETEERMTAVSLGVDDLSGVEGKKSTTVAMDFGRITIAPELVLYLFGTPGQDRFWFMWDDLATGALAAIVLADTRRLDASFASIDFFEARDIPFAVGVNCFDGRRDCSAEQVRTALDLDPSTPVLLCDVRDRGSSKSVLLAVLEAARAQAAARLAPLGGGQLEHHHHHH”, the “soluble on expression in E. coli” value was “not soluble”.

For the sequence “MVSVSVVIATLKPRDEIEAIQCLEDQTFDDFEVIVCDKSPVTRARNEGIRQSSSDKIVFLDDDSRPQPGYLEKANDVLETEAAYAGRTIHPVDDVFARHFTAHYDWGGDPCYVDHFWGCNMGVHRDVFKTVGGWDEEMGWGHEEKELARRVRSEFDIRYDPELVVDHPYASSITDYWKKQYKLETKSPYYWSKCNVSRADQLKNIFCETFDPLNYVRITPVATMIEAGSTVAKTAGRLRGFLDHTHHEEGRGGVPDIDRPSQSPERSGLEHHHHHH”, the “soluble on expression in E. coli” value was “not soluble”.

For “MVTIVWKESKGTAKSRYKARRAELIAERRSNEALARKIALKLSGCVRADKAASLGSLRCKKADECSGSICLPNVAIYAAGYRKSKQLTAR”, the “soluble on expression in E. coli” value is listed as “not soluble”.

On to “MVTLSLPNMEGRREQLIAQVESILASAADGRVQKTKETQSVDFKEEAGRRNGPQIEPGKPENPEAADKLADEVACMANTPGGGALIVGIEDKTGRIIGTELDIDWLRQGIFTRIDVAPDVVAKRVLGQRVLAIYVAAAAEPIEDTSDRLRWRVGDSCRPVDRAEWWEYQRAQSGFDPMAQVTTATLGDARPAALALARKWDPAFAELTDEELLRGIGALDAEGFLSQAGKLLFTSLDRTAIELSIFDVHGGQVLNRVVPEPEKSCLEQLDYLEQALNVVNKNNTVVEGFVHKPVPEIPRLAVREAMLNAMIHRDWNRSEPIDVRWIELDSTLIVRSPGGFPAAITSENVLSNRAARYPALADLYRALGLVDKQGVGVDRMYQAMIALGHRPPTIEEIAGPFVETTLVGGRPVLPVLELVSSIVPEARQDDYRIAIVLYLLFQRPFITIDVVARGLQSGKEAARNALEAARQTTVAGAPLIIAHDGVWLLGNACREILRKVEPSPFSPVRYLSTDQAELTNAAMLWLSEVGDLATSDLMAMCGVSRGTAKACVDGLVDEERVVAVGGGRSRRYRLVELEHHHHHH”, for which the “soluble on expression in E. coli” value is listed as “soluble”.

“MVTQILGAMESQVGGGPAGPALPNGPLLGTNGATDDSKTNLIVNYLPQNMTQDEFKSLFGSIGDIESCKLVRDKITGQSLGYGFVNYSDPNDADKAINTLNGLKLQTKTIKVSYARPSSASIRDANLYVSGLPKTMSQKEMEQLFSQYGRIITSRILVDQVTGVSRGVGFIRFDKRIEAEEAIKGLNGQKPLGAAEPITVKFANNPSQKTGQALLTHLYQSSARRYAGPLHHQTQRFRLDNLLNMAYGVKSPLSLIARFSPIAIDGMSGLAGVGLSGGAAGAGWCIFVYNLSPEADESVLWQLFGPFGAVTNVKVIRDFTTNKCKGFGFVTMTNYDEAAMAIASLNGYRLGERVLQVSFKTSKQHKA”: the “soluble on expression in E. coli” value is given as “soluble”.

With “MVTVRYYATLRPITKKKEETFNGISKISELLERLKVEYGSEFTKQMYDGNNLFKNVIILVNGNNITSMKGLDTEIKDDDKIDLFPPVAGG”, the “soluble on expression in E. coli” value is listed as “soluble”.

As for “MVVEVDSMPAASSVKKPFGLRSKMGKWCCRCFPCYRESGKSNVGTSGDHDDSAMKTLRSKMGKWCHHCFPCCRGSGKSNVGASGDHDDSAMKTLRNKMGKWCCHCFPCCRGSGKSKVGAWGDYDDSAFMEPRYHVRGEDLDKLHRAAWWGKVPRKDLIVMLRDTDVNKKDKQKRTALHLASANGNSEVVKLLLDRRCQLNVLDNKKRTALIKVCSSQLYQHEAVQCQEDECALMLLEHGTDPNIPDEYGNTTLHYAIYNEDKLMAKALLLYGADIESKNKHGLTPLLLGVHEQKQQVVKFLIKKKANLNALDRYGRTALILAVCCGSASIVSLLLEQNIDVSSQDLSGQTAREYAVSSHHHVICQLLSDYKEKQMLKISSENSNPENVSRTRNK”, the “soluble on expression in E. coli” value is “not soluble”.
